# According to patent publication US20120269815A1, “NEUROTROPHINS AND USES THEREOF” (Regents of the University of Minnesota, priority 2008, published 2012):
# Assays:
# p75^NTR = target: T1, p75^NTR (Homo sapiens, UniProt P08138); experiment: Fluorescence-labeled TUF1 peptide binding to COS7 cells expressing p75NTR; conditions: labeled peptide 5 nM, 90 min, COS7 cells transfected with pCMV-SPORT6-p75
# T1 construct: host or cells: COS7
# T1 sequence (P08138 29-427): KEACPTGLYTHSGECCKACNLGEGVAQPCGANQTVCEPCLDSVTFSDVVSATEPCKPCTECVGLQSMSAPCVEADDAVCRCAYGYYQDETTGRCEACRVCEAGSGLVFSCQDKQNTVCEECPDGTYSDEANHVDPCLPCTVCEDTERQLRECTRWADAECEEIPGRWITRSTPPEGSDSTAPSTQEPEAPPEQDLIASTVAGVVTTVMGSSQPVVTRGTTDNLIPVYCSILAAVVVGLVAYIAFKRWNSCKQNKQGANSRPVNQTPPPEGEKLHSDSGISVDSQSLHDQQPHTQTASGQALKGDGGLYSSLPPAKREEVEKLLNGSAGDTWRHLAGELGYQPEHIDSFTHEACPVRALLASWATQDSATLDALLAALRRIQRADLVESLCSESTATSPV
# Method: COS7 cells were seeded at 10,000 cells/well onto a 18 mm coverslip in a 12-well plate. Cells were allowed to settle overnight in a cell culture incubator (NuAire NU-8600, NuAire, Inc., Plymouth, Minn.) set at 37° C. and 5% CO2. Cells were transfected with pCMV-eGFP (Clontech Laboratories, Inc., Mountain View, Calif.) or pCMV-SPORT6-p75 (ATCC) using Fugene HD (Roche Diagnostics Corp., Indianapolis, Ind.) and were incubated overnight. The binding assays were carried out according to Horton et al. with modifications. Synthetic TUF1 peptides (TUF1[43-54] (SEQ ID NO:1) and TUF1[24-40] (SEQ ID NO:3) were generated (via Sigma Genosys, Sigma-Aldrich Co. St. Louis, Mo.) and were conjugated per manufacturer's recommendation with DyLight 549 NHS Ester (Thermo Fisher Scientific, Waltham, Mass.), which have similar spectra to Cy3 dye. Unconjugated dye was removed with a dye removal column (Thermo Fisher Scientific, Waltham, Mass.). Labeled peptides were diluted to 5 nM in 0.15 M Sucrose/PBS and added (1.0 ml/well) to transfected COS7 cells. The binding reaction was incubated in the dark at room temperature for 90 minutes. Cells were rinsed thoroughly with PBS+0.05% Tween-20 to remove unbound peptide. Cells were then fixed with 4% Paraformaldehyde (5 minutes).
# Following fixation, cells were permeabilized in PBS+0.1% Tween-20 for 10 minutes, rinsed thoroughly with PBS, and blocked in BSA (10 mg/ml) for 10 minutes. Cells were incubated with rabbit anti-p75^NTR antibody (1:10,000 dilution) for 30 minutes. Excess antibody was removed with PBS washes. Cells were then incubated with Alexa-488 goat anti-rabbit antibody (1:500 dilution, Invitrogen). Cells were again rinsed thoroughly with PBS and mounted in Vectashield mounting media plus DAPI (Vector Laboratories, Inc., Burlingame, Calif.).
# COS7 cells were seeded at 10,000 cells/well onto an 18 mm coverslip in a 12-well plate. Cells were allowed to settle overnight in a cell culture incubator (NuAire NU-8600, NuAire, Inc., Plymouth, Minn.) set at 37° C. and 5% CO2. Cells were transfected with pCMV-eGFP (Clontech Laboratories, Inc., Burlingame, Calif.) or pCMV-SPORT6-p75 (ATCC) using Fugene HD (Roche Diagnostics Corp., Indianapolis, Ind.) and were incubated overnight. The binding assays were carried out according to Horton et al. with modifications. Synthetic TUF1 peptides (TUF1[43-54] (SEQ ID NO:1) and TUF1[24-40] (SEQ ID NO:3)) were generated (via Sigma Genosys, Sigma-Aldrich, St. Louis, Mo.) and were conjugated per manufacturer's recommendation with DyLight 549 NHS Ester (Thermo Fisher Scientific Inc., Waltham, Mass.), which have similar spectra to Cy3 dye. Unconjugated dye was removed with a dye removal column (Thermo Fisher Scientific Inc., Waltham, Mass.). Labeled peptides were diluted to 5 nM in 0.15M Sucrose/PBS and added (1.0 ml/well) to transfected COS7 cells. The binding reaction was incubated in the dark at room temperature for 90 min. Cells were rinsed thoroughly with PBS+0.05% Tween-20 to remove unbound peptide. Cells were then fixed with 4% Paraformaldehyde (5 minutes).
# Following fixation, cells were permeabilized in PBS+0.1% Tween-20 for 10 minutes, rinsed thoroughly with PBS, and blocked in BSA (10 mg/ml) for 10 minutes. Cells were incubated with rabbit anti-p75^NTR antibody (1:10,000 dilution) for 30 minutes. Excess antibody was removed with PBS washes. Cells were then incubated with Alexa-488-goat anti-rabbit antibody (1:500 dilution, Invitrogen Corp., Carlsbad, Calif.). […]
# [1] = system: TUF1 expression in adrenal glomerulosa cell dispersion; experiment: Angiotensin II stimulation of adrenal glomerulosa cell dispersion (qPCR); format: cell-based, rat; conditions: overnight incubation, 5-500 ng/mL
# Method: Adrenal glands were dissected from adult Sprague-Dawley rats (280 g-300 g) and kept in cold PBS. Following fat removal, adrenal capsules were detached and placed into a few drops of dispersion media (DMEM, 1.0 g/L glucose, 0.32% collagenase (type I, GIBCO, Life Technologies Corp., Carlsbad, Calif.), 4% BSA (Sigma-Aldrich Co., St. Louis, Mo.), 0.1% DNAse (Sigma-Aldrich Co., St. Louis, Mo.). Adrenal capsules were then minced with surgical scissors, transferred to dispersion media and incubated for 90 minutes in a 37° C. and 10% CO2 cell culture incubator with trituration at 15 minute intervals. Dispersed cells were filtered through a 100 μm wire mesh into wash media (DMEM, 0.4% BSA, 0.28% HEPES) and centrifuged at 200×g for 5 minutes. Following supernatant removal, cells were rinsed in wash media and resuspended in incubation media (wash media+7.65 mM CaCl2). Dissociated cells were seeded at 75,000 cells/well in a 24-well plate and incubated at 37° C. and 10% CO2 prior to stimulation. […]
# Following overnight incubation, total RNA was isolated from capsular/glomerulosa cells using an RNA-isolation kit (Zymo Research Corp., Orange, Calif.) and concentrations were measured by absorbance at 260 nm ([…]) using a NanoDrop ND-1000 (NanoDrop Technologies, Inc., Wilmington, Del.). […]
Substance,binding to p75^NTR (p75^NTR),binding to p75^NTR (p75^NTR; listed as TUF1^24-40),TUF1 expression [1]
"TUF1[24-40]: synthetic TUF1 peptide, SEQ ID NO:3, without similarity to neurotrophic factors (NGF and BDNF) (GTIKLTPRLSKDAYSEM; Artifical sequence; TUF1 polypeptide)",did not bind cells expressing p75^NTR,did not bind the p75^NTR,–
"Angiotensin II (DRVYIHPF; Angiotensin-2; UniProt P01019 25-32, looked up) [angiotensin II (Sigma-Aldrich) used to stimulate adrenal glomerulosa cells]",–,–,activates TUF1 expression
